Assay results published in patent US20060205646.

Key:
[1] = system: Heat gamma
[2] = system: T1, p26 protein from Artemia franciscana
T1 sequence: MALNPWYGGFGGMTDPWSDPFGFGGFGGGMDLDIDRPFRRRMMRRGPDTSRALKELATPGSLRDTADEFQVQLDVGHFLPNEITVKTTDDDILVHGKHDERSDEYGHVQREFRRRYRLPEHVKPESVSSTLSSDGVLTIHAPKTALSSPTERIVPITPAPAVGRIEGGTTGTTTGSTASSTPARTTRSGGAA

[3] = biological target: bovine serum albumin (UniProt P02769)
Sequence of bovine serum albumin (P02769 25-607): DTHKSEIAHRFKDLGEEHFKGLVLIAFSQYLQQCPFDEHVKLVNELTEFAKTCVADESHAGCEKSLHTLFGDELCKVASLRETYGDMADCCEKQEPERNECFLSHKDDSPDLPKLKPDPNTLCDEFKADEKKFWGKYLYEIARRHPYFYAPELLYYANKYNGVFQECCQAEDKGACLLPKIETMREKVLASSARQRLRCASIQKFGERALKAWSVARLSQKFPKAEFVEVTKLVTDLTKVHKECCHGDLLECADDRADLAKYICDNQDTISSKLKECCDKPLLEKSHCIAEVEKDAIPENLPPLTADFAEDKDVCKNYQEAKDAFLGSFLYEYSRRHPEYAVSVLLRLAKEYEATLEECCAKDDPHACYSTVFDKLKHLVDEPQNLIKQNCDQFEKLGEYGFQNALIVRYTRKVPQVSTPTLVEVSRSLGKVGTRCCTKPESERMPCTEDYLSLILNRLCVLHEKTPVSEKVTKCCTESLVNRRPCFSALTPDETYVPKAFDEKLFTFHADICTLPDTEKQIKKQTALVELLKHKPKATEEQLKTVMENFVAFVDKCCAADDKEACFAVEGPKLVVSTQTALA

Sequence of activated recombinant MMP9 (chain, as listed by the source): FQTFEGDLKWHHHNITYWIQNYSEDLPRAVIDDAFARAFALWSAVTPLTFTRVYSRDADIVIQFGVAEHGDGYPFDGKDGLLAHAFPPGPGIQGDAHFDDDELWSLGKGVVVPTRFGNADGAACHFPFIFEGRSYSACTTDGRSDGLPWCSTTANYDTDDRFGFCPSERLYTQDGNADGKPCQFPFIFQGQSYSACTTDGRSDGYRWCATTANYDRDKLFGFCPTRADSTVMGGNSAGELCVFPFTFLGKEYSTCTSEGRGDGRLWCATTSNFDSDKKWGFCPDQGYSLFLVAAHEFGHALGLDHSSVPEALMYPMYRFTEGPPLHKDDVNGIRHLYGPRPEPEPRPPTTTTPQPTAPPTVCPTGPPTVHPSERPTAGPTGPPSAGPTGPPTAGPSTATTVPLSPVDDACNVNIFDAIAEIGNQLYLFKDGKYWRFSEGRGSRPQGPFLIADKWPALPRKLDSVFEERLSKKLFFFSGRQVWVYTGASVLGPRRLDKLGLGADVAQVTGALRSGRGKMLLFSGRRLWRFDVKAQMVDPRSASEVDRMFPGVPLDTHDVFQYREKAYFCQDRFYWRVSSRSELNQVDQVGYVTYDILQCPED
Sequence of Heat gamma (chain, as listed by the source): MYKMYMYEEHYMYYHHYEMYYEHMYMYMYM

activated recombinant MMP9
cleavage of Fluorogenic Peptide substrate I by 0.270 µg activated recombinant MMP9, 60 µg Heat Gamma [1]: Heat gamma efficiently inhibits the MMP9 activity as indicated by a decrease in relative fluorescence

Nde I restriction endonuclease
cleavage of pET-28a by Nde I after 1 hour pretreatment at 40° C. (agarose gel) [2]: In the presence of 5 µg of p26 protein, Nde I remained fully active, and completely cleaved pET-28a | cleavage of pET-28a by Nde I after 1 hour pretreatment at 40° C. (agarose gel) [3]: An equivalent amount of BSA (5 µg) did not protect the enzyme any better than the buffer control
